# Results from the supplement of paper PMC7877785.
# ± gives the uncertainty stated by the source.
# Experiment: self-splicing fitness, log relative to wild type (ln ratio); higher = more splicing; Tetrahymena group I intron in knt gene, E. coli kanamycin selection, DiMSum; sequences stand for … in CUCUCU…GGAGGGAAAAGUUAUCAGGCAUGCACCUGGUAGCUAGUCUUUAAACCAAUAGAUUGCAUCGGUUUAAAAGGCAAGACCGUCAAAUUGCGGGAAAGGGGUCAACAGCCGUUCAGUACCAAGUCUCAGGGGAAACUUUGAGAUGGCCUUGCAAAGGGUAUGGUAAUAAGCUGACGGACAUGGUCCUAACCACGCAGCCAAGUCCUAAGUCAACAGAUCUUCUGUUGAUAUGGAUGCAGUUCACAGACUAAAUGUCGGUCGGGGAAGAUGUAUUCUUCUCAUAAGAUAUAGUCGGACCUCUCCUUAAUGGGAGCUAGCGGAUGAAGUGAUGCAACACUGGAGCCGCUGGGAACUAAUUUGUAUGCGAAAGUAUAUUGAUUAGUUUUGGAGUACUCGUGGUCG
# In short: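 Fitness was computed with DiMSum as the error-weighted combination of replicate fold changes, kanamycin versus none, each normalised to wild type. The library randomised all eight intron nucleotides of the P1ex region, with the intron placed in the knt kanamycin-resistance gene on pET-22b(+) in E. coli BL21(DE3). Six replicate transformations were grown overnight at 37°C or 30°C on LB agar with or without 25 μg/mL kanamycin, plus 100 μg/mL carbenicillin, 50 μM IPTG and 0.2% rhamnose. Pooled colonies were amplicon-sequenced on an Illumina HiSeq 2500.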
Sequence,self-splicing fitness (ln) (30 °C),self-splicing fitness (ln) (37 °C)
GGCCAGCAAUAUUACGAAGU,-2.41 ± 0.39,-1.26 ± 0.26
GGCCAGCAAUAUUACGACGA,-2.9 ± 0.16,-1.98 ± 0.12
GGCCAGCAAUAUUACGAGGG,-3.58 ± 0.16,-1.75 ± 0.17
GGCCAGCAAUAUUACGCACA,-0.344 ± 0.16,-0.177 ± 0.17
GGCCAGCAAUAUUACGGGAC,-2.68 ± 0.12,-1.21 ± 0.15
GGCCAGCAAUAUUACGGGAU,-1.73 ± 0.097,-0.354 ± 0.1
GGCCAGCAAUAUUACGGGUU,-3.08 ± 0.17,-2.06 ± 0.19
GGCCAGCAAUAUUACGGUCA,-0.963 ± 0.1,-0.389 ± 0.1
GGCCAGCAAUAUUACGGUCU,-2.82 ± 0.15,-2.78 ± 0.3
GGCCAGCAAUAUUACGUACC,-0.685 ± 0.13,1.43 ± 0.17
GGCCAGCAAUAUUACGUCAU,-1.7 ± 0.063,-1.27 ± 0.08
GGCCAGCAAUAUUACGUGUA,-2.41 ± 0.083,-1.51 ± 0.1
GGCCAGCAAUAUUACGUUAG,-3.38 ± 0.26,-2.82 ± 0.34
GGCCAGCAAUAUUACGUUCA,-3.23 ± 0.23,-0.905 ± 0.19
GGCGAGCAAUAUUACGAAAG,-3.27 ± 0.3,-2.77 ± 0.24
GGCGAGCAAUAUUACGACCG,-0.74 ± 0.28,-0.371 ± 0.26
GGCGAGCAAUAUUACGACGC,-1.89 ± 0.29,
GGCGAGCAAUAUUACGAGGG,-0.768 ± 0.24,
GGCGAGCAAUAUUACGAUCU,-0.834 ± 0.12,0.229 ± 0.14
GGCGAGCAAUAUUACGCAAA,-2.13 ± 0.19,-2.01 ± 0.14
GGCGAGCAAUAUUACGCAAU,-2.22 ± 0.12,-0.788 ± 0.13
GGCGAGCAAUAUUACGCACU,-2.83 ± 0.34,-1.07 ± 0.28

Sequence,self-splicing fitness (ln) (30 °C),self-splicing fitness (ln) (37 °C)
GGCGAGCAAUAUUACGCCUC,-1.67 ± 0.33,
GGCGAGCAAUAUUACGCUAU,-2.55 ± 0.21,-1.11 ± 0.18
GGCGAGCAAUAUUACGGACU,-0.419 ± 0.077,-0.219 ± 0.13
GGCGAGCAAUAUUACGGAGG,-2.52 ± 0.34,-1.9 ± 0.45
GGCGAGCAAUAUUACGGCGG,-2 ± 0.39,-1.28 ± 0.37
GGCGAGCAAUAUUACGGCGU,-2.49 ± 0.21,-1.1 ± 0.2
GGCGAGCAAUAUUACGGGCU,-2.07 ± 0.36,-1.23 ± 0.28
GGCGAGCAAUAUUACGGUGG,-3.31 ± 0.24,-2.07 ± 0.22
GGCGAGCAAUAUUACGUAAC,-2.52 ± 0.19,-0.781 ± 0.13
GGCGAGCAAUAUUACGUCCA,-1.97 ± 0.14,-1.02 ± 0.12
GGCGAGCAAUAUUACGUGGG,-3.57 ± 0.44,-1.44 ± 0.27
GGCGAGCAAUAUUACGUUAU,-3.17 ± 0.17,-1.3 ± 0.16
GGCUAGCAAUAUUACGAAAA,-1.06 ± 0.24,-1.33 ± 0.27
GGCUAGCAAUAUUACGAAAC,,-0.972 ± 0.4
GGCUAGCAAUAUUACGAAUA,-0.326 ± 0.37,-1.7 ± 0.28
GGCUAGCAAUAUUACGAAUG,-2.26 ± 0.14,-1.01 ± 0.14
GGCUAGCAAUAUUACGACCU,-0.605 ± 0.081,0.0864 ± 0.09
GGCUAGCAAUAUUACGAGAA,,-0.208 ± 0.37
GGCUAGCAAUAUUACGAUCA,-0.733 ± 0.093,-0.246 ± 0.088
GGCUAGCAAUAUUACGAUCG,-0.651 ± 0.12,-0.58 ± 0.15
GGCUAGCAAUAUUACGCAGA,-1.3 ± 0.1,-0.502 ± 0.11
